# B1: Pure recombinant human calumenin (natural protein, UniProt O43852 20-315, looked up)
# chain: KPTEKKDRVHHEPQLSDKVHNDAQSFDYDHDAFLGAEEAKTFDQLTPEESKERLGKIVSKIDGDKDGFVTVDELKDWIKFAQKRWIYEDVERQWKGHDLNEDGLVSWEEYKNATYGYVLDDPDPDDGFNYKQMMVRDERRFKMADKDGDLIATKEEFTAFLHPEEYDYMKDIVVQETMEDIDKNADGFIDLEEYIGDMYSHDGNTDEPEWVKTEREQFVEFRDKNRDGKMDKEETKDWILPSDYDHAEAEARHLVYESDQNKDGKLTKEEIVDKYDLFVGSQATDFGEALVRHDEF
# notes: calumenin, human, recombinant; No catalogue number, host, limits or tag are printed; also called pure calumenin; source: bought: Prospec (Israel)
# Biological target: T1, purified full length CFTR (UniProt P13569 1-1480)
# T1 construct: cystic fibrosis transmembrane conductance regulator, full length, called Wt-CFTR in the SPR methods; also called pure CFTR; Wt-CFTR; source: purified, gift from Pr Robert Ford (University of Manchester, UK)
# T1 sequence (P13569 whole entry): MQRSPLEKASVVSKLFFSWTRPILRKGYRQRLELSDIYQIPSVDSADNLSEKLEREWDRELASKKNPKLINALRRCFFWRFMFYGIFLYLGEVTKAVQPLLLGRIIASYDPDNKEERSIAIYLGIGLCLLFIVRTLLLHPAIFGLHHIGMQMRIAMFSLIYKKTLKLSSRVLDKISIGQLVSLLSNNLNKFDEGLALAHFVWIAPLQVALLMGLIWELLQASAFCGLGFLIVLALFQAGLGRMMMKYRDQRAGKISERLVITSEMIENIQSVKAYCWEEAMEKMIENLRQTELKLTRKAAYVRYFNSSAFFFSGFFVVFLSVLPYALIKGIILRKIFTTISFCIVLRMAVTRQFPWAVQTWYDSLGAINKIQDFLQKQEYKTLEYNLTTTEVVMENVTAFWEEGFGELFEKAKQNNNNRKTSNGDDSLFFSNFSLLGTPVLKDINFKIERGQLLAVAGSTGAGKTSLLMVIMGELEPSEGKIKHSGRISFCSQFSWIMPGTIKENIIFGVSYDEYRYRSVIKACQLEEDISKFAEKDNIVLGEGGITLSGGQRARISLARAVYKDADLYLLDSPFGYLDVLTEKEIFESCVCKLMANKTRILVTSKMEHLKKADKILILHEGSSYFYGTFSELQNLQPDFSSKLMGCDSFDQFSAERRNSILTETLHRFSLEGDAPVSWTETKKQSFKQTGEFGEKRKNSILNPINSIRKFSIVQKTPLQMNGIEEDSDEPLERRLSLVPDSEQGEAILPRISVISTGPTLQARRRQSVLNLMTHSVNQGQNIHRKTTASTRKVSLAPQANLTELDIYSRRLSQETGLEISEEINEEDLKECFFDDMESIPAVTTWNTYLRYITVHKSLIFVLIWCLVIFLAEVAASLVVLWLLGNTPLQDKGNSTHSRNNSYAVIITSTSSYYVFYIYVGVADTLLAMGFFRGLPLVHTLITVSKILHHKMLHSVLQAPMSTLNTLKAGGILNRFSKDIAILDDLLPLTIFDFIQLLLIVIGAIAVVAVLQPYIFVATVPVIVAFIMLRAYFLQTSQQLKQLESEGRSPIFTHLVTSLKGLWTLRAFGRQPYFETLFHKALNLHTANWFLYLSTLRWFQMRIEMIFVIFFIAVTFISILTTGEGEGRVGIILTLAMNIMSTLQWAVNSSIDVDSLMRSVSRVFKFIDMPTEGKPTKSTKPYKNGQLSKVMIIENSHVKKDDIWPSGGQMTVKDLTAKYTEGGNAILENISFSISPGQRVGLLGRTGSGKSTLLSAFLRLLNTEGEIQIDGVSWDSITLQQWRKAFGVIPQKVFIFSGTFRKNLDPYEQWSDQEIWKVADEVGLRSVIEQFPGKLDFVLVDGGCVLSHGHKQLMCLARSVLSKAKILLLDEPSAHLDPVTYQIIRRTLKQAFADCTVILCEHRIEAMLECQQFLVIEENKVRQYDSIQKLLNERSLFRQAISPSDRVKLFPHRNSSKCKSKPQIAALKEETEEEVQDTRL
# Assay: SPR; Biacore 3000, calumenin amine-coupled to a CM5 chip (about 2000 RU), CFTR injected at 0.15 to 1.5 nM, 5 µl/min, HBS-EP pH 7.4, 25°C, triplicate
# Conditions: both partners purified
binder,measurement,value
B1,Kd,3.8 pM
